Test results reported in patent US7696313B2, “Prodrug compounds with isoleucine” (priority 2000, dated 2010).
“And” between values parts separate entries of the source, which are not always exact repeats. Equal values may be shown once. “Also recorded” adds a separate entry of the source.

Experiments:
[1] = Metabolism and clearance in normal mice (plasma and urine, LC MS/MS); assay type: in vivo; conditions: after Suc-βAla-Ile-Ala-Leu-Dox 117 mg/kg
tumor bearing mice [2] = conditions: repeat dosing, 5 doses; cited from earlier work
[3] = tested on: LNCaP, HT-29 and PC-3 cells; assay: 3H-thymidine proliferation assay, stated across the cell lines used; assay type: cell-based; conditions: 48 hours, 3H-thymidine incorporation; read-out: IC50 of the positive control in the cell lines used
Protocol: (§1) Adherent cells, LNCaP (prostate carcinoma), HT-29 (colon carcinoma) and PC-3 (prostate carcinoma), were cultured in DMEM media containing 10% heat inactivated fetal calf serum (FCS). On the day of the study the cells were detached from the plate with a trypsin solution. The collected cells were washed and resuspended at a concentration of 0.25×10^6 cells/ml in DMEM containing 10% FCS. 100 μl of cell suspension were added to 96 well plates and the plates were incubated for 3 hours to allow the cells to adhere. […] The plates were then incubated for 24 hours, pulsed with 10 μl of a 100 μCi/ml ^3H-thymidine and incubated for an additional 24 hours (total incubation time 48 hours). The plates were harvested using a 96 well Harvester (Packard Instruments) and counted on a Packard Top Count Counter. Four parameter logistic curves were fitted to the ^3H-thymidine incorporation as a function of drug molarity using Prism software to determine IC50 values.
(§2) Prostate carcinoma cells, LNCaP and PC-3 cells or colon carcinoma cells HT-29, were incubated with increasing concentration of the indicated compounds for 48 hours and cellular proliferation was measured using the ^3H-thymidine assay.

[4] = tested on: doxorubicin-resistant colorectal carcinoma LS174t; conditions: tolerated dose under this dosing regimen; cited from earlier work
[5] = Metabolism and clearance in normal mice (plasma and urine, LC MS/MS); assay type: in vivo
Protocol: The metabolism and clearance of Suc-Ile-Ala-Leu-Dox was studied in normal mice. The mice were administered Suc-Ile-Ala-Leu-Dox at a single intravenous bolus dose of 117 mg/kg. Plasma samples were obtained at 1 and 4 hours. Plasma samples of 100 μl were transferred to Eppendorf tubes (1.5 mL) and an internal standard of daunorubicin (20 μL at 0.5 mg/ml) was added together with acetonitrile (400 μl). The tubes were capped and briefly vortexed followed by centrifugation at 14,000 rpm. 420 μl from each tube was removed and dried in vacuo. Each sample was reconstituted in 65 μl ammonium formate containing acetonitrile (20%) prior to analysis by reverse phase liquid chromatography in combination with tandem mass spectrometry (LC MS/MS).
Urine was collected at 2 and 24 hours post administration from pairs of mice in metabolic cages. Urine samples were diluted with ammonium formate containing acetonitrile (20%) to give a target analyte concentration within the practical range of the LC MS/MS assay. 30 μl of each diluted sample was placed in an Eppendorf tube (1.5 ml) and an internal standard of daunorubicin (20 μL at 0.5 mg/ml) was added together with 50 μl of ammonium formate containing acetonitrile (20%). Each sample was then analyzed by LC MS/MS.
An Agilent HP 1100. HPLC with DAD detector and Chemstation software was coupled to a PE Sciex API 365 mass spectrometer with an electrospray ion source.
HPLC was performed on a TSK-Gel Super ODS, […], 4.6×50 mm (TosoHaas) reversed phase column equipped with a […] C18 guard disc (Higgins Analytical) and stainless steel frit (Upchurch Scientific). Chromatography was performed at room temperature. The flow rate was 0.5 ml/min. Injection volume was 50 μl. Gradient elution was performed using a mobile phase of 20 mM ammonium formate with increasing amounts of acetonitrile. The API 365 was operated at 365° C. in a multiple reaction monitoring mode, set to monitor specific analyte parent-daughter ion pairs. Integration of chromatograms was performed by MacQuan software (PE Sciex) and quantitation of each analyte obtained by comparison to previously obtained calibration curves. Daunorubicin was used as an internal standard in all cases.
Percent of administered dose—plasma volume estimated at 40% of blood volume, which was calculated at 7% of animal's body weight.
Plasma samples were obtained at 1 and 4 hours from separate mice. Urine was collected at 2 and 24 hours post administration from pairs of mice in metabolic cages. The plasma and urine samples were prepared and analyzed as described in Example 4.

[6] = tested on: doxorubicin-resistant colorectal carcinoma LS174t; assay: LS174t human colorectal carcinoma xenograft efficacy; assay type: in vivo, nude mice; conditions: uncorrected
Protocol: (§3) In repeat-dose studies in tumor bearing mice, groups of ten mice were dosed with various amounts of prodrug for a total of five doses at either five day or 1 week intervals.

[7] = tested on: LNCaP (prostate carcinoma) cells; conditions: read-out: IC50 LNCaP; 48 hours, 3H-thymidine incorporation
Protocol: as §1, §2

[8] = tested on: HT-29 (colon carcinoma) cells; conditions: read-out: IC50 HT29; 48 hours, 3H-thymidine incorporation
Protocol: as §1, §2

[9] = tested on: PC-3 (prostate carcinoma) cells; conditions: read-out: IC50 PC-3; 48 hours, 3H-thymidine incorporation
Protocol: as §1, §2

[10] = mouse, in vivo, iv, 100 umol/kg
Protocol: (§9) Plasma was obtained from three individual animals in each group at 5 minutes, 1, 2, 4, or 6 hr.

normal ICR mice = assay: Second single dose Maximum Tolerated Dose (SD-MTD) study, 49 days; conditions: for acute toxicity within 24 hours: any dose level; for SD-MTD (mg/kg Dox=): doxorubicin equivalent
Protocol: (§4) In a second single dose Maximum Tolerated Dose (SD-MTD) study, groups of five normal ICR mice were administered intravenously bolus doses of Suc-Ile-Ala-Leu-Dox. The mice were observed daily for 49 days and body weights measured twice weekly.
(§5) In a second single dose Maximum Tolerated Dose (SD-MTD) study, groups of five normal ICR mice were administered intravenous bolus doses of Suc-βAla-Ile-Ala-Leu-Dox. The mice were observed daily for 49 days and body weights measured twice weekly.

normal mice = assay: Initial single dose Maximum Tolerated Dose (MTD) study, 28 days; assay type: in vivo; conditions: for single dose MTD fold higher than doxorubicin alone, after post-analysis: about 75% active compound, versus doxorubicin […] mg/kg; for acute toxicity / single-dose MTD, doxorubicin equivalent: intravenous bolus; for acute toxicity: all dose levels tested; for single-dose MTD, doxorubicin equivalent: normal mice; for single-dose MTD fold higher than doxorubicin alone: versus doxorubicin 4 mg/kg
Protocol: (§6) In our initial single dose Maximum Tolerated Dose (MTD) study, groups of five normal mice were administered intravenous bolus doses of Suc-Ile-Ala-Leu-Dox. The mice were observed daily for 28 days and body weights measured twice weekly.
(§7) The mice were observed daily for 28 days and body weights measured twice weekly.
(§8) In the single dose Maximum Tolerated Dose (MTD) studies, groups of normal mice were administered intravenous bolus doses of the prodrug. The mice were observed daily for 28 days and body weights measured twice weekly. The MTD was estimated to be equal to the highest dose that produced no death in mice after 28 days.

[11] = as above; assay type: in vivo, mice; conditions: mouse, in vivo
Protocol: as §6, §7, §8

[12] = for Major Plasma Metabolite, Table 7 / Major Plasma Metabolite, Table 8: mice
Protocol: as §9

tumor bearing mice [13] = assay: Repeat-dose tolerance (RD-MTD) in tumor bearing mice; assay type: in vivo
Protocol: as §3

[14] = as above; assay type: in vivo; conditions: mouse, in vivo
Protocol: as §3

[15] = Second single dose Maximum Tolerated Dose (SD-MTD) study, 49 days; conditions: mouse, in vivo, iv
Protocol: as §4, §5

[16] = after Suc-Ile-Ala-Leu-Dox 117 mg/kg, collected 0-2 hours
[17] = after Suc-Ile-Ala-Leu-Dox 117 mg/kg, collected 2-24 hours
[18] = 28 days, uncorrected doses, read-out: SD MTD (mg/kg), Table 7
[19] = SD MTD, doxorubicin equivalent dose, Table 8, value in parentheses, corrected results
[20] = SD MTD, molar equivalent dose of doxorubicin, Table 7, value in parentheses, uncorrected
[21] = corrected results, read-out: SD MTD (mg/kg), Table 8

Structure (SMILES) | Urine 2 hr, percent of administered dose [5, 16] | Urine 24 hr, percent of administered dose [5, 17] | IC50 [7] | IC50 [8] | IC50 [9] | AUC(0-t) [10] | acute toxicity within 24 hours (normal ICR mice) | SD-MTD (mg/kg Dox=) (normal ICR mice) | single dose MTD fold higher than doxorubicin alone, after post-analysis (normal mice) | acute toxicity (normal mice) | single-dose MTD, doxorubicin equivalent (normal mice; 28 days) | single-dose MTD fold higher than doxorubicin alone (normal mice) | MTD [11, 18] | MTD [11, 19] | MTD [11, 20] | MTD [11, 21] | Major Plasma Metabolite, Table 7 [12] | Major Plasma Metabolite, Table 8 [12] | further results
COc1cccc2c1C(=O)c1c(O)c3c(c(O)c1C2=O)C[C@@](O)(C(=O)CO)C[C@@H]3O[C@H]1C[C@H](N)[C@H](O)[C@H](C)O1 [Doxorubicin, reference compound] | 0.06 % of administered dose | 0.36 % of administered dose |  |  |  |  |  |  |  |  |  |  |  |  |  |  |  |  | Urine 2 hr, percent of administered dose ([1]; collected 0-2 hours): 0.21 % of administered dose; Urine 24 hr, percent of administered dose ([1]; collected 2-24 hours): 0.51 % of administered dose; tolerated repeat dose level of doxorubicin (standard safe RD efficacious dose) (tumor bearing mice [2]): 4 mg/kg and 3 mg/kg; IC50 [3]: 20 to 80 nM; efficacy of doxorubicin alone at its tolerated dose in LS174t model [4]: historically ineffective; also recorded: completely ineffective; Plasma 4 hr, percent of administered dose ([5]; mouse, in vivo, 4 h): 0.00 % of administered dose; Optimal Efficacy Repeat Dose (mg/kg) ([6]; five doses at five day or 1 week intervals, 60 days): 4 (4) mg/kg; Optimal Efficacy Repeat Dose, molar equivalent dose of doxorubicin ([6]; value in parentheses): 4 (4) mg/kg
CC[C@H](C)[C@H](NC(=O)CCC(=O)O)C(=O)N[C@@H](C)C(=O)N[C@@H](CC(C)C)C(=O)N[C@H]1C[C@H](O[C@H]2C[C@](O)(C(=O)CO)Cc3c(O)c4c(c(O)c32)C(=O)c2c(OC)cccc2C4=O)O[C@@H](C)[C@H]1O [Suc-Ile-Ala-Leu-Dox] | 3.9 % of administered dose | 15.0 % of administered dose | 1100 nM | 47 µM | 88 µM | 452 µM·h | no acute toxicity | 56 mg/kg Dox= and 58 mg/kg Dox= | at least 3.3 fold | no acute toxicity | 66 mg of doxorubicin/kg and 70 mg of doxorubicin/kg | at least 16 fold | > 117 mg/kg | 56 mg/kg | > 70 mg/kg | 94 mg/kg | Leu-Dox | Leu-Dox | mortalities (normal mice; doses up to 117 mg/kg, 28 days): no mortalities; relative exposure to doxorubicin ([12]; tripeptide vs tetrapeptide counterpart, leucine vs isoleucine compounds): two fold decrease
CC[C@H](C)[C@H](NC(=O)CCNC(=O)CCC(=O)O)C(=O)N[C@@H](C)C(=O)N[C@@H](CC(C)C)C(=O)N[C@H]1C[C@H](O[C@H]2C[C@](O)(C(=O)CO)Cc3c(O)c4c(c(O)c32)C(=O)c2c(OC)cccc2C4=O)O[C@@H](C)[C@H]1O [Suc-βAla-Ile-Ala-Leu-Dox] |  |  | 190 nM | 38 µM | 57 µM | 326 µM·h | no acute toxicity | 42 mg/kg Dox= | approximately 3.7 fold | No acute toxicity | 40 mg of doxorubicin/kg | approximately 10 fold | 75 mg/kg | 42 mg/kg | 42 mg/kg | 75 mg/kg | Leu-Dox | Leu-Dox | RD-MTD, doxorubicin equivalent per dose (tumor bearing mice [13]; Q7Dx5 as printed): 30 mg/kg doxorubicin equivalent; RD-MTD as total exposure (tumor bearing mice [13]; after 5 doses (Q5DX5)): approximately 150 mg/kg doxorubicin equivalent; treated animals terminated due to signs of toxicity (tumor bearing mice [13]; high dose group (68 mg/kg, Q5DX5), groups of ten): Two; RD-MTD fold higher than RD-MTD / tolerated repeat dose level of doxorubicin (tumor bearing mice [13]; versus doxorubicin 4 mg/kg): at least 6.5 fold; MTD ([14]; Q7Dx5 as printed, based on efficacy study in Example 8, read-out: RD-MTD (repeat-dose MTD)): ~53 mg/kg; MTD ([14]; Repeat Dose MTD, doxorubicin equivalent dose, Table 8, value in parentheses, corrected results): 30 mg/kg; MTD ([14]; corrected results, Q 5D × 5 or Q 7D × 5, read-out: Repeat Dose MTD (mg/kg), Table 8): 53 mg/kg; MTD [15]: 75 mg/kg; morbidity or mortality (normal ICR mice; 75 mg/kg dose group): no morbidity or mortality; animals euthanized due to weight loss or paralysis (normal ICR mice; 100 mg/kg dose, by Day 21, groups of five): three; SD-MTD Molar Ratio (Dox=) (normal ICR mice; fold higher on a molar basis than SD-MTD of doxorubicin): 2.6; Urine 2 hr, percent of administered dose ([5]; mouse, in vivo): 12.7 % of administered dose; Urine 24 hr, percent of administered dose ([5]; mouse, in vivo): 4.81 % of administered dose; morbidity (normal mice; 75 mg/kg dose group): no morbidity; animals euthanized due to treatment-related toxicity (normal mice; 100 mg/kg dose group, Day 21, groups of five): two; animals euthanized due to treatment-related toxicity (normal mice; 125 mg/kg dose group, Day 14, groups of five): four; MTD ([11]; iv, intravenous bolus, normal mice, 28 days, read-out: single-dose Maximum Tolerated Dose (MTD)): 75 mg/kg
